Test results published in PMC4605309.
Where two headings read alike, the source gives them in different places.

B1: Smad7 promoter DNA (dsDNA)
DNA 1: CCAGCCAGCCAGCCGGCGCCAC
DNA 2: GTGGCGCCGGCTGGCTGGCTGG
B2: Bambi enhancer DNA (dsDNA)
DNA 1: AGTGTCGTCTCGTTGGCGCCGGGTGC
DNA 2: GCACCCGGCGCCAACGAGACGACACT
B3: Id2 promoter DNA (dsDNA)
DNA 1: CCTGGCGCCAGAGAGTCTGC
DNA 2: GCAGACTCTCTGGCGCCAGG

What was measured:
Smad5 MH1 [1] = molecular target: T1, Smad5 MH1 (Mus musculus, UniProt P97454 1-143); assay: EMSA
Smad5 MH1 [2] = molecular target: T1, Smad5 MH1; assay: EMSA; remark: listed apart in the source

T1 sequence (P97454 1-143): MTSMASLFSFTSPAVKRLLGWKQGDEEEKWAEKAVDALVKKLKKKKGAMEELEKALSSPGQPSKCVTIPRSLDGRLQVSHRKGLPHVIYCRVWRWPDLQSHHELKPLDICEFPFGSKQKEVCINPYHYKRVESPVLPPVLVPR

| Binder | binding result (Smad5 MH1 [1]) | binding result (Smad5 MH1 [2]) |
| --- | --- | --- |
| B1 | binds | – |
| B2 | binds | – |
| B3 | – | binds |
